According to PMC10943538 (Plant Communications, 2023):

T1: TT8-MBP (Arabidopsis thaliana, UniProt Q9FT81 1-518)
T1 sequence (looked up): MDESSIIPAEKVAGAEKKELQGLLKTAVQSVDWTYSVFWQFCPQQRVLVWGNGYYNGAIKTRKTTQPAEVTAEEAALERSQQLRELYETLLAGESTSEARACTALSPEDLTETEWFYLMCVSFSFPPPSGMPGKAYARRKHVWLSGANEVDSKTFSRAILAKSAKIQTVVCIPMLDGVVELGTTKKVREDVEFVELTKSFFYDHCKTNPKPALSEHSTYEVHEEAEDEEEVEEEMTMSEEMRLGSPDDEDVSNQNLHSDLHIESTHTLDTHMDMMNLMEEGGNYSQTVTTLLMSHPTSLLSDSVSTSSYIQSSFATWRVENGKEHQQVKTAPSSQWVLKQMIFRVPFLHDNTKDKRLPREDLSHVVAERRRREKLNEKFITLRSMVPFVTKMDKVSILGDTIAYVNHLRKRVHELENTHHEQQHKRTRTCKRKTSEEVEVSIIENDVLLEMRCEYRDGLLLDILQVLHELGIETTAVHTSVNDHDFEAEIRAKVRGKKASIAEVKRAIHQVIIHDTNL

T2: EGL3-MBP (Arabidopsis thaliana, UniProt Q9CAD0 1-596)
T2 sequence (looked up): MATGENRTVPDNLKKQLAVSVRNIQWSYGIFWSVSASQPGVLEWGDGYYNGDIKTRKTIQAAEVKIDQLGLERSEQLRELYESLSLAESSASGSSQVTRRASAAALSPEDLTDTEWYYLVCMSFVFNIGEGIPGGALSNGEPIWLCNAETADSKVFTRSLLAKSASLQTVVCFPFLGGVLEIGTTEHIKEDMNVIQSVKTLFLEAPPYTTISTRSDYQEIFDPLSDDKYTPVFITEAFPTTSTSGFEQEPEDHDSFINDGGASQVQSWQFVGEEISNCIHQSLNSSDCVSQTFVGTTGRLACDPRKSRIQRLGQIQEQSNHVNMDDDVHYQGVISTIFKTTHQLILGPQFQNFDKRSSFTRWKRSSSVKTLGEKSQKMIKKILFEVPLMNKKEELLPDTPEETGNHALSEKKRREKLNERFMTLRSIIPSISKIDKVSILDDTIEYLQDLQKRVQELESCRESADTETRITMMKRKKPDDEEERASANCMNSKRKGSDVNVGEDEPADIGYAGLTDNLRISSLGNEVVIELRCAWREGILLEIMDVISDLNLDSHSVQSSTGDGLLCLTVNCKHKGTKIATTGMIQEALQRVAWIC

T3: MBP-MYB75 (Arabidopsis thaliana, UniProt Q9FE25 1-248)
T3 sequence (looked up): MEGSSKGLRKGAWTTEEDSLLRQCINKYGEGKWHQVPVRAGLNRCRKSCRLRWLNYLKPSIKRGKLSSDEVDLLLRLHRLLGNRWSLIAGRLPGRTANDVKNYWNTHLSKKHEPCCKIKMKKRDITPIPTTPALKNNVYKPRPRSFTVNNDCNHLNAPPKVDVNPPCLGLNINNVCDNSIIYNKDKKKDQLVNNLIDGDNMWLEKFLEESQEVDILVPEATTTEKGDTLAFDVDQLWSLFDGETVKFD

B1: His-MYB75 (natural protein, Arabidopsis thaliana, UniProt Q9FE25 1-248, looked up)
chain: MEGSSKGLRKGAWTTEEDSLLRQCINKYGEGKWHQVPVRAGLNRCRKSCRLRWLNYLKPSIKRGKLSSDEVDLLLRLHRLLGNRWSLIAGRLPGRTANDVKNYWNTHLSKKHEPCCKIKMKKRDITPIPTTPALKNNVYKPRPRSFTVNNDCNHLNAPPKVDVNPPCLGLNINNVCDNSIIYNKDKKKDQLVNNLIDGDNMWLEKFLEESQEVDILVPEATTTEKGDTLAFDVDQLWSLFDGETVKFD

Columns and labels:
Test in all cases: pull-down
TT8-MBP = biological target: T1, TT8-MBP
EGL3-MBP = biological target: T2, EGL3-MBP
MBP-MYB75 = biological target: T3, MBP-MYB75
His-MYB75 = biological target: B1

binding result (TT8-MBP) | binding result (EGL3-MBP) | binding result (MBP-MYB75) | binding result (His-MYB75) | Binder
binds | binds |  |  | B1
 |  | binds | binds | GST-MYB30^N (domain or fragment) not shown
